PMC12606367, “CryoEM and computational modeling structural insights into the pH regulator NBCn1” (Nature Communications, 2025)

Target: the molecule itself
Test: cryo-EM structure; purified NBCn1 (~1.5 mg/ml) in 20 mM Tris-HCl, 115 mM NaCl, 25 mM NaHCO3, pH 7.4, 0.01% LMNG; dimer peak of Superose 6 put on grids; three dimeric states (3.5, 3.4, 3.3 Å), final map 3.3 Å

B1: N-terminally Strep(II)-tagged wt-human NBCn1-A (natural protein, UniProt Q9Y6M7-1 1-1214, looked up)
chain: MERFRLEKKLPGPDEEAVVDLGKTSSTVNTKFEKEELESHRAVYIGVHVPFSKESRRRHRHRGHKHHHRRRKDKESDKEDGRESPSYDTPSQRVQFILGTEDDDEEHIPHDLFTEMDELCYRDGEEYEWKETARWLKFEEDVEDGGDRWSKPYVATLSLHSLFELRSCILNGTVMLDMRASTLDEIADMVLDNMIASGQLDESIRENVREALLKRHHHQNEKRFTSRIPLVRSFADIGKKHSDPHLLERNGEGLSASRHSLRTGLSASNLSLRGESPLSLLLGHLLPSSRAGTPAGSRCTTPVPTPQNSPPSSPSISRLTSRSSQESQRQAPELLVSPASDDIPTVVIHPPEEDLEAALKGEEQKNEENVDLTPGILASPQSAPGNLDNSKSGEIKGNGSGGSRENSTVDFSKVDMNFMRKIPTGAEASNVLVGEVDFLERPIIAFVRLAPAVLLTGLTEVPVPTRFLFLLLGPAGKAPQYHEIGRSIATLMTDEIFHDVAYKAKDRNDLLSGIDEFLDQVTVLPPGEWDPSIRIEPPKSVPSQEKRKIPVFHNGSTPTLGETPKEAAHHAGPELQRTGRLFGGLILDIKRKAPFFLSDFKDALSLQCLASILFLYCACMSPVITFGGLLGEATEGRISAIESLFGASLTGIAYSLFAGQPLTILGSTGPVLVFEKILYKFCRDYQLSYLSLRTSIGLWTSFLCIVLVATDASSLVCYITRFTEEAFAALICIIFIYEALEKLFDLGETYAFNMHNNLDKLTSYSCVCTEPPNPSNETLAQWKKDNITAHNISWRNLTVSECKKLRGVFLGSACGHHGPYIPDVLFWCVILFFTTFFLSSFLKQFKTKRYFPTKVRSTISDFAVFLTIVIMVTIDYLVGVPSPKLHVPEKFEPTHPERGWIISPLGDNPWWTLLIAAIPALLCTILIFMDQQITAVIINRKEHKLKKGAGYHLDLLMVGVMLGVCSVMGLPWFVAATVLSISHVNSLKVESECSAPGEQPKFLGIREQRVTGLMIFILMGLSVFMTSVLKFIPMPVLYGVFLYMGVSSLKGIQLFDRIKLFGMPAKHQPDLIYLRYVPLWKVHIFTVIQLTCLVLLWVIKVSAAAVVFPMMVLALVFVRKLMDLCFTKRELSWLDDLMPESKKKKEDDKKKKEKEEAERMLQDDDDTVHLPFEGGSLLQIPVKALKYSPDKPVSVKISFEDEPRKKYVDAETSL
modifications: N-acetylglucosamine on Asn776, Asn786 and Asn796; disulfide bonds Cys766-Cys814 and Cys768-Cys802
notes: human NBCn1-A (SLC4A7), NP_003606.3, 1214 aa, full length; the atomic model holds residues 581 to 1207; Homodimer in the cryoEM map; only residues 581-1207 (transmembrane domain and C-terminal helix) were built, the cytoplasmic N-terminal part is not in the model; also called SLC4A7; full-length human NBCn1; source: HEK293 cells, transfected (pcDNA3.1(+)), purified (StrepTrap HP, Superose 6 SEC, …)
**Q.** For B1, which “stoichiometry N” value is on record?
**A.** The value was 2.
